We go through three substances from US20230086069A1.

Sequence of human CD19 on cells (CD20+ B cells of human PBMC; Raji lymphoma cells) (human) (P15391 20-556): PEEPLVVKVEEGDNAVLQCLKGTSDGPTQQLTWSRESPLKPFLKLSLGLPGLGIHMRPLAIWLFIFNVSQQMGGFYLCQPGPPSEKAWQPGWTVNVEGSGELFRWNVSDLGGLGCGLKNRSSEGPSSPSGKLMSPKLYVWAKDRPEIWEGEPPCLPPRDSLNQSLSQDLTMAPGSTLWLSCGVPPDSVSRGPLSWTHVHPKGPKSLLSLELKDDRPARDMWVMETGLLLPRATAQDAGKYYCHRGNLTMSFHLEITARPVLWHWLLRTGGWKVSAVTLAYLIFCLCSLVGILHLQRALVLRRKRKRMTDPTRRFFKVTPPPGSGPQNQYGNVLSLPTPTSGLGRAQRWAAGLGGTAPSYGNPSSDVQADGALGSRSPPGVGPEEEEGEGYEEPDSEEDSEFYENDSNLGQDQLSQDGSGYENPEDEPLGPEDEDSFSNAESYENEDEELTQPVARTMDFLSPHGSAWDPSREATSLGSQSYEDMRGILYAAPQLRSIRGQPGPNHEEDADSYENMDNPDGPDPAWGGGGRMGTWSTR

The test addresses human CD19 on cells (CD20+ B cells of human PBMC; Raji lymphoma cells) (human) (UniProt P15391). Nature of the test: flow cytometry, dose response on human CD20+ lymphocytes.
Substance 4G7 (mouse anti-human CD19 antibody) had an EC50 of 0.549 µg/mL.

In turn, HIB19 (mouse anti-human CD19 antibody) came in with an EC50 of 0.0544 µg/mL. This EC50 is about 10-fold lower than that of the substance before.

The substance SJ25C (mouse anti-human CD19 antibody) yielded an EC50 of 0.209 µg/mL.
